In PMC12170943:

Test system: OmpRAc (phosphorylated by EnvZAcC) (Acidovorax citrulli xjL12 (group II))
Assay: MST
Conditions: EMSA: 10 mM Tris-HCl pH 7.4, 50 mM KCl, 50 mM MgCl2, 5% glycerol, room temperature 20 min, 50 ng probe in 20 uL, MST: 50 mM Tris-HCl pH 7.4, 150 mM NaCl

## PhrpG Cy5 probe (MST)
  Kd: 5.72 µM
